The values that follow come from patent US20240002331A1 (TIDAL THERAPEUTICS, published 2024).

Experiment [1] deals with mouse CD4 on primary murine T-cells (murine) (UniProt P06332). Put plainly: in vivo, DiI-labelled targeted LNPs injected i.v. in BALB/c mice, flow cytometry of blood 24 hours after injection; untargeted LNPs ˜2%. (In general: In flow cytometry, cells or beads pass a laser one at a time.)
Experiment [2] has as its target mouse CD8 on primary murine T-cells (murine) (UniProt P01731). Put plainly: in vivo, DiI-labelled targeted LNPs injected i.v. in BALB/c mice, flow cytometry of blood 24 hours after injection; untargeted LNPs <2%.
The target of experiment [3] is T1, human CD7 on primary human T-cells (human, UniProt P09564 26-240).
T1 construct: whole, on cells
T1 sequence (looked up): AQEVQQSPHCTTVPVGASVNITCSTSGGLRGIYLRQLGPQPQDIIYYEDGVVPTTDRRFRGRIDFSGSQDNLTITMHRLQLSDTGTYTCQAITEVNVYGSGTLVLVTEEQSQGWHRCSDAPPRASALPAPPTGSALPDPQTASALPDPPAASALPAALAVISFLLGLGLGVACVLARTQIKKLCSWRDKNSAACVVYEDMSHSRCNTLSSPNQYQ
Put plainly: DiI-labelled LNP with inserted Nb conjugate on primary human CD3+ T cells, flow cytometry.

The target in experiment [4] is T2, human CD8 on primary human cells (CD8 T-cells, NK-cells) (human, UniProt P01732 22-235).
T2 construct: whole, on cells; also called CD8 receptor
Put plainly: DiI-labelled LNP with inserted Fab conjugate, human whole blood, 24 h, flow cytometry (% DiI+ and DiI MFI) on CD4 and CD8 T-cells.

Experiment [5] concerns the target T3, human CD2 on primary human T-cells (human, UniProt P06729 25-351).
T3 construct: whole, on cells
T3 sequence (looked up): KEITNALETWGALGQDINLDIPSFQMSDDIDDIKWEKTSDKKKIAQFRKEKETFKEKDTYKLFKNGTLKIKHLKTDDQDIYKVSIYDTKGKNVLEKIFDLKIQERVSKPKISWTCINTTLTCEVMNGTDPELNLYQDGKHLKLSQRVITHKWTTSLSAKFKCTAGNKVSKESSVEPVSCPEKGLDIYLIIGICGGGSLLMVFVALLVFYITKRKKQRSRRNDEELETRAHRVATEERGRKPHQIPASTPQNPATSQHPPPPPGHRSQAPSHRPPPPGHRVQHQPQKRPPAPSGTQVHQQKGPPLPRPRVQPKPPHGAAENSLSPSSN
Put plainly: DiI-labelled LNP with inserted Fab conjugate on primary human CD3+ T cells, flow cytometry.

For experiment [6], the target named is T4, CD20 on Raji (B-cell) cells (UniProt P11836 1-297, limits assumed).
T4 sequence (looked up): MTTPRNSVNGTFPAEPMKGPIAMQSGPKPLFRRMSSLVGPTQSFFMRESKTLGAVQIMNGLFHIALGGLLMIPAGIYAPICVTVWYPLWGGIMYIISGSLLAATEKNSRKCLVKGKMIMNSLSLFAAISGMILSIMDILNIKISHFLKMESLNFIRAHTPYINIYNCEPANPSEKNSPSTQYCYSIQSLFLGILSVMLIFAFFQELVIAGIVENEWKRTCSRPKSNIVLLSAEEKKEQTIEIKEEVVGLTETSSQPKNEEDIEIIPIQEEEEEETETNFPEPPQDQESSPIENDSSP
Put plainly: cell-based or functional assay.

Chain of mouse CD4 on primary murine T-cells (murine) (P06332 27-457): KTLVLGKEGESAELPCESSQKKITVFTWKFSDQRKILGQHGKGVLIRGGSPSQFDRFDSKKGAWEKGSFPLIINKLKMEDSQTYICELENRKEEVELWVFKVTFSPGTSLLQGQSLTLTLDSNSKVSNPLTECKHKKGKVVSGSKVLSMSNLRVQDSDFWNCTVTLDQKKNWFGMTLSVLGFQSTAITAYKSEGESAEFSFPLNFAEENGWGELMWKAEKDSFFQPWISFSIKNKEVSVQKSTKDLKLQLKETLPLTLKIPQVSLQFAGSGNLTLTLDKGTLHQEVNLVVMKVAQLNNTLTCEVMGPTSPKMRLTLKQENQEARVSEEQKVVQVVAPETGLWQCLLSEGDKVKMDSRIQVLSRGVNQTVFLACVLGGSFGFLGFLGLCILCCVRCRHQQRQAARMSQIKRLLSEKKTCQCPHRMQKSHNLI
Chain of mouse CD8 on primary murine T-cells (murine) (P01731 28-247): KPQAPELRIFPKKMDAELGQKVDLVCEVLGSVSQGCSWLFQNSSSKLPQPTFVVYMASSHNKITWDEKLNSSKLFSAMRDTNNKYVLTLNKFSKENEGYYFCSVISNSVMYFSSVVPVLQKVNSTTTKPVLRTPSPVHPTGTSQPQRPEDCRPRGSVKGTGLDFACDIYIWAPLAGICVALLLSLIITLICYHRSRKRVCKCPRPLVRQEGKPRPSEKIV
T2 sequence (P01732 22-235): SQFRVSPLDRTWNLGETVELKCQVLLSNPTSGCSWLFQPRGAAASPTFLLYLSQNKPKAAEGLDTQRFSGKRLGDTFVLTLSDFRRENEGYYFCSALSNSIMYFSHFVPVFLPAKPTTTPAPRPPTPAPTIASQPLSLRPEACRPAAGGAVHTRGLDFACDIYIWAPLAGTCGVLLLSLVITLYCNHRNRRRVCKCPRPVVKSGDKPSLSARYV

In experiment [1], “anti-mouse CD4 Fab GK1.5, inserted in LNPs” yielded a % of the CD3+CD4+ cell population DiI-positive of 67%.
For “anti-mouse CD8 Fab YTS156.7.7, inserted in LNPs”, the % of CD3+CD8+ T-cells in the blood with LNP-association (DiI+) in experiment [2] amounted to 78%.

B1: Anti-CD7 V1 Nb, lipid conjugate (VHH)
VHH: DVQLQESGGGLVQAGGSLRLSCAVSGYPYSSYCMGWFRQAPGKEREGVAAIDSDGRTRYADSVKGRFTISQDNAKNTLYLQMNRMKPEDTAMYYCAARFGPMGCVDLSTLSFGHWGQGTQVTVSI
modifications: conjugated to DSPE-3.4K PEG-maleimide (the cysteine is not named in the example)
notes: The entry includes the C-terminal spacer, cysteine and His tag; Inserted in LNPs; also called αCD7
Take B1: the binding result in experiment [3] is on record as “binds”.

B2: mutOKT8-Fab (non-functional mutated OKT8), DSPE-PEG (2k) lipid conjugate (Fab, V domains shown)
VH: QVQLVQSGAEDKKPGASVKVSCKASGFNIKDTYIHWVRQAPGQGLEWMGRIDPANDNTLYASKFQGRVTITADTSSNTAYMELSSLRSEDTAVYYCGRGAGAYVFDHWGQGTTVTVSS
VL: DIVMTQSPSSLSASVGDRVTITCRTSRSISAALAWYQEKPGKAPKLLIYSGSTLQSGVPSRFSGSGSGTDFTLTISSLQPEDFATYYCQQHNENPLTFGQGTKVEIKR
modifications: DSPE-PEG (2k)-maleimide coupled to the C-terminal cysteine in the heavy chain (conjugated using similar methods as hSP34)
notes: Negative control, inserted in mRNA LNPs; also called muOKT8
For B2, the binding result in experiment [4] was “no binding”.

B3: anti-CD2 TS2/18.1 Fab NoDS, lipid conjugate (Fab, V domains shown)
VH: EVQLVESGGGLVMPGGSLKLSCAASGFAFSSYDMSWVRQTPEKRLEWVAYISGGGFTYYPDTVKGRFTLSRDNAKNTLYLQMSSLKSEDTAMYYCARQGANWELVYWGQGTLVTVSA
VL: DIVMTQSPATLSVTPGDRVFLSCRASQSISDFLHWYQQKSHESPRLLIKYASQSISGIPSRFSGSGSGSDFTLSINSVEPEDVGVYFCQNGHNFPPTFGGGTKLEIKR
modifications: DSPE-PEG-maleimide coupled to the C-terminal cysteine in the heavy chain (methods of Example 4)
notes: Inserted in LNPs
For B3, in experiment [5], the binding result was “binds”.

B4: TTR-023 anti-CD20 (Leu-16) CAR (other)
chain: DYKAKEVQLQQSGAELVKPGASVKMSCKASGYTFTSYNMHWVKQTPGQGLEWIGAIYPGNGDTSYNQKFKGKATLTADKSSSTAYMQLSSLTSEDSADYYCARSNYYGSSYWFFDVWGAGTTVTVSSGGGSGGGSGGGGSSDIVLTQSPAILSASPGEKVTMTCRASSSVNYMDWYQKKPGSSPKPWIYATSNLASGVPARFSGSGSGTSYSLTISRVEAEDAATYYCQQWSFNPPTFGGGTKLEIKGGGGSAAAIEVMYPPPYLDNEKSNGTIIHVKGKHLCPSPLFPGPSKPFWVLVVVGGVLACYSLLVTVAFIIFWVRSKRSRLLHSDYMNMTPRRPGPTRKHYQPYAPPRDFAAYRSRVKFSRSAEPPAYQQGQNQLYNELNLGRREEYDVLDKRRGRDPEMGGKPRRKNPQEGLYNELQKDKMAEAYSEIGMKGERRRGKGHDGLYQGLSTATKDTYDALHMQALPPR
With B4, in experiment [6], the “% of dead Raji cells in co-culture with CAR-T cells (Lipid 9 or DLin-KC3-DMA LNPs), against mCherry transfected T-cells” value stood at 4 fold and the “% of dead Raji cells in co-culture with CAR-T cells (Lipid 15 or DLin-KC3-DMA LNPs), against mCherry transfected T-cells” value was found to be 4 fold.

B5: anti-CD2 9.6 Fab NoDS, lipid conjugate (Fab, V domains shown)
VH: QVQLQQPGAELVRPGSSVKLSCKASGYTFTRYWIHWVKQRPIQGLEWIGNIDPSDSETHYNQKFKDKATLTVDKSSGTAYMQLSSLTSEDSAVYYCATEDLYYAMEYWGQGTSVTVSS
VL: NIMMTQSPSSLAVSAGEKVTMTCKSSQSVLYSSNQKNYLAWYQQKPGQSPKLLIYWASTRESGVPDRFTGSGSGTDFTLTISSVQPEDLAVYYCHQYLSSHTFGGGTKLEIKR
modifications: DSPE-PEG-maleimide coupled to the C-terminal cysteine in the heavy chain (methods of Example 4)
notes: Inserted in LNPs
B5: in experiment [5], the binding result is listed as “binds”.
